Series [1] has as its system HA-E2F-5/DP-1 in cells (Homo sapiens). The series is described as follows: cell_activity. Conditions: U2-OS CAT reporter; E2F-5 plus DP-1.
Series [2] addresses GAD-E2F-5/LexA-DP-1 in yeast (Mus musculus) (UniProt Q61502+Q08639). In words: cell_activity. Conditions: yeast lacZ reporter.

Drawing on patent publication US20030022260, this text covers activity (fold activation) for 2 substances.

Where only a bound is given, the exact number is not on record here.

GAD-E2F-5/LexA-DP-1 in yeast (Mus musculus), sequence (Q61502 whole entry, chain 1 of 2): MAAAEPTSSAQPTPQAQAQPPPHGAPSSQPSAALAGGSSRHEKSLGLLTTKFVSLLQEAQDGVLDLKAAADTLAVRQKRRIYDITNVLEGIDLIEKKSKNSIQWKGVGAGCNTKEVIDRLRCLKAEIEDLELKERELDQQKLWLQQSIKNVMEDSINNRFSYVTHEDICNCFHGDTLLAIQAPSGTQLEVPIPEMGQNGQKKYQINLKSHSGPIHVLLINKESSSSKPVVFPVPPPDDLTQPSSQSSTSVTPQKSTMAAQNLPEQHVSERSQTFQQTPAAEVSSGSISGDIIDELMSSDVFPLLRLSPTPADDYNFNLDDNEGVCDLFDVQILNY
GAD-E2F-5/LexA-DP-1 in yeast (Mus musculus), sequence (Q08639 whole entry, chain 2 of 2): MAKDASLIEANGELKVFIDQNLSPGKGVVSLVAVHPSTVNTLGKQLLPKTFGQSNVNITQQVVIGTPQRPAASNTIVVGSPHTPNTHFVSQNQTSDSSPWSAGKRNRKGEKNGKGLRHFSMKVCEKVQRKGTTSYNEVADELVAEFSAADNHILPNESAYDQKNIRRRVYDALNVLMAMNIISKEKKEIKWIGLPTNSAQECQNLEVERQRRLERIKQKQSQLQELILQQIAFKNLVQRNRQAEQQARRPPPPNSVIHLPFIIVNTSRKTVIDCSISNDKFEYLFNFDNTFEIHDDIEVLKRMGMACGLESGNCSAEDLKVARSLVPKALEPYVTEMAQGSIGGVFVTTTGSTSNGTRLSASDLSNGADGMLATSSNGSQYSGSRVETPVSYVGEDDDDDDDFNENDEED

As to E2F4-CAT reporter, four E2F sites, the activity (fold activation) in series [1] was > 100.

For “p4xWT CYC1 reporter, four wild-type E2F sites”, in series [2], the activity (fold activation) is > 6.
